Tests used:
KaiC-EE (S. elongatus) = KaiC-EE (S. elongatus) (UniProt Q79PF4); experiment: fluorescence polarisation
KaiC = target: T1, KaiC (S. elongatus, UniProt Q79PF4 1-519); experiment: fluorescence polarisation
T1 sequence: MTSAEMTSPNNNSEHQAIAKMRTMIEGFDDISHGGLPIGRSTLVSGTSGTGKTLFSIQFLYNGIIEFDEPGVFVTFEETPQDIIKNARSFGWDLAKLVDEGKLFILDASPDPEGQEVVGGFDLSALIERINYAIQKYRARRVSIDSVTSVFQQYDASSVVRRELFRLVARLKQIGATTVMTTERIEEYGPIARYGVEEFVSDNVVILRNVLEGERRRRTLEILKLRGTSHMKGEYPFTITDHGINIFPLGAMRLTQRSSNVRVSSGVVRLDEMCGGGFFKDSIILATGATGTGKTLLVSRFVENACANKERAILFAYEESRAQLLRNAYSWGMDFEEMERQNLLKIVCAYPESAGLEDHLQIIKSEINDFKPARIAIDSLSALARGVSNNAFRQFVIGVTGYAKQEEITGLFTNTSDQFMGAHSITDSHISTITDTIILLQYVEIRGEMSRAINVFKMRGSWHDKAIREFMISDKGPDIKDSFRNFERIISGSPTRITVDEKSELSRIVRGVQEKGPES

fold increase in affinity against SasAtrx (KaiC-EE (S. elongatus)): > 100 fold
binding result (KaiC): binds
B1: full-length SasA (enzyme)
chain: MGESLSPQALAQPLLLQLFVDTRPLSQHIVQRVKNILAAVEATVPISLQVINVADQPQLVEYYRLVVTPALVKIGPGSRQVLSGIDLTDQLANQLPQWLVQQEAFFADREPPEVNIPFTELGQPETPALQQADAFFQLQQQYADLSERTKFLEQVIALVAHDLRNPLTAALLAVDTIQIRSQSFSVATAKEMQGLCSLFDQARSQLREIERMIAEILEATRHSGESLRINPREVVFEPLLQQVLEQLHERWRSKQQQLITDVPGDLPTLYADPDRLRQVLVNLLDNAIKYTPPGGTITIAALHRTSQKVQISISDTGSGIPRDQLSVIFKNLVRLSRDSSQEGYGIGLSVCQRIVQAHFGRIWVASELGQGSTFHFTMPVYRYTMPC

Source: paper doi:10.1101/2020.06.17.158394 (bioRxiv, 2020)
